The chains are these.
T1: EsCas13d, nuclease-dead (Eubacterium siraeum, UniProt B0MS50, R295A;H300A;R849A;H854A)
T1 sequence: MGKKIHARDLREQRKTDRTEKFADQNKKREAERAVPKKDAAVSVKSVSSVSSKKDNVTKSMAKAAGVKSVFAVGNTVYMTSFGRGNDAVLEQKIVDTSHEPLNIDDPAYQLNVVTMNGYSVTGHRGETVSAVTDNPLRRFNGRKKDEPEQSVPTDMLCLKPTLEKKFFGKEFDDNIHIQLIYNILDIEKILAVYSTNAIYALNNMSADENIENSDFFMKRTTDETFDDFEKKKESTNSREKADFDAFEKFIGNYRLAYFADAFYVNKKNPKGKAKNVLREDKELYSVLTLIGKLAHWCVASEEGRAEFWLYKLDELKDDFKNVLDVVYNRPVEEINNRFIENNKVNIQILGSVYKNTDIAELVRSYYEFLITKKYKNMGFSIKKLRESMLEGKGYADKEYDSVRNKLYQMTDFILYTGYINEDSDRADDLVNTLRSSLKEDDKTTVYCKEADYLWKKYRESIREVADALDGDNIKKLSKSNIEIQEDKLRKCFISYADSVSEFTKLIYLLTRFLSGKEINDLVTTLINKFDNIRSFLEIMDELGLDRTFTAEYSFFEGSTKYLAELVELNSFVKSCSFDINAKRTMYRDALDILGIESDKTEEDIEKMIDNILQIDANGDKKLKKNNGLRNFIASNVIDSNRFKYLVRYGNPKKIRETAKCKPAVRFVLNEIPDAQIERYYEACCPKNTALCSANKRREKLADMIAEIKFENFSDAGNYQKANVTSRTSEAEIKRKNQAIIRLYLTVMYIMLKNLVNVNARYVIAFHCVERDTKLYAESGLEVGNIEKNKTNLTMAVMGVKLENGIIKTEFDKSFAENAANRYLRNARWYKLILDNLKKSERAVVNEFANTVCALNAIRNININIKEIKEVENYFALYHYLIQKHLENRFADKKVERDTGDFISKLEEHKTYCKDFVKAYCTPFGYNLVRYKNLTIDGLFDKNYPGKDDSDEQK

B1: target 1 insA 3' of 10,insA 3' of 4 (mixed)
RNA 1: CACCCGUGCAAAAAUGCAGGGGUCUAAAACUGAGCGGAUAACCUCUCUAUGG
RNA 2: GGGAAUGGAUCCACAUCUACGAAUUCGUACCAUAGAGAGGUUAAUCCGCAUCACCGAGAUCGGAAGAGCACACGU
B2: target 1 insG 3' of 10,insG 3' of 1 (mixed)
RNA 1: CACCCGUGCAAAAAUGCAGGGGUCUAAAACUGAGCGGAUAACCUCUCUAUGG
RNA 2: GGGAAUGGAUCCACAUCUACGAAUUCGUACCAUAGAGAGGUUGAUCCGCUCAGCCGAGAUCGGAAGAGCACACGU
B3: target 1 insU 3' of 17,insA 3' of 6 (mixed)
RNA 1: CACCCGUGCAAAAAUGCAGGGGUCUAAAACUGAGCGGAUAACCUCUCUAUGG
RNA 2: GGGAAUGGAUCCACAUCUACGAAUUCGUACCAUAGUAGAGGUUAUCCAGCUCACCGAGAUCGGAAGAGCACACGU
B4: target 1 U19A,A20C (mixed)
RNA 1: CACCCGUGCAAAAAUGCAGGGGUCUAAAACUGAGCGGAUAACCUCUCUAUGG
RNA 2: GGGAAUGGAUCCACAUCUACGAAUUCGUACCCAAGAGAGGUUAUCCGCUCACCGAGAUCGGAAGAGCACACGU
B5: target 1 insG 3' of 10,insC 3' of 10 (mixed)
RNA 1: CACCCGUGCAAAAAUGCAGGGGUCUAAAACUGAGCGGAUAACCUCUCUAUGG
RNA 2: GGGAAUGGAUCCACAUCUACGAAUUCGUACCAUAGAGAGGUUGCAUCCGCUCACCGAGAUCGGAAGAGCACACGU
B6: target 1 insC 3' of 20,insA 3' of 2 (mixed)
RNA 1: CACCCGUGCAAAAAUGCAGGGGUCUAAAACUGAGCGGAUAACCUCUCUAUGG
RNA 2: GGGAAUGGAUCCACAUCUACGAAUUCGUACCACUAGAGAGGUUAUCCGCUCAACCGAGAUCGGAAGAGCACACGU
B7: target 1 insA 3' of 17,insU 3' of 7 (mixed)
RNA 1: CACCCGUGCAAAAAUGCAGGGGUCUAAAACUGAGCGGAUAACCUCUCUAUGG
RNA 2: GGGAAUGGAUCCACAUCUACGAAUUCGUACCAUAGAAGAGGUUAUCUCGCUCACCGAGAUCGGAAGAGCACACGU
B8: target 1 insG 3' of 10,insC 3' of 1 (mixed)
RNA 1: CACCCGUGCAAAAAUGCAGGGGUCUAAAACUGAGCGGAUAACCUCUCUAUGG
RNA 2: GGGAAUGGAUCCACAUCUACGAAUUCGUACCAUAGAGAGGUUGAUCCGCUCACCCGAGAUCGGAAGAGCACACGU
B9: target 1 insG 3' of 10,insU 3' of 1 (mixed)
RNA 1: CACCCGUGCAAAAAUGCAGGGGUCUAAAACUGAGCGGAUAACCUCUCUAUGG
RNA 2: GGGAAUGGAUCCACAUCUACGAAUUCGUACCAUAGAGAGGUUGAUCCGCUCAUCCGAGAUCGGAAGAGCACACGU
B10: target 1 insG 3' of 8,insA 3' of 2 (mixed)
RNA 1: CACCCGUGCAAAAAUGCAGGGGUCUAAAACUGAGCGGAUAACCUCUCUAUGG
RNA 2: GGGAAUGGAUCCACAUCUACGAAUUCGUACCAUAGAGAGGUUAUGCCGCUCAACCGAGAUCGGAAGAGCACACGU
B11: target 1 G15C,C21A (mixed)
RNA 1: CACCCGUGCAAAAAUGCAGGGGUCUAAAACUGAGCGGAUAACCUCUCUAUGG
RNA 2: GGGAAUGGAUCCACAUCUACGAAUUCGUACAAUAGACAGGUUAUCCGCUCACCGAGAUCGGAAGAGCACACGU
B12: target 1 insG 3' of 10,insA 3' of 2 (mixed)
RNA 1: CACCCGUGCAAAAAUGCAGGGGUCUAAAACUGAGCGGAUAACCUCUCUAUGG
RNA 2: GGGAAUGGAUCCACAUCUACGAAUUCGUACCAUAGAGAGGUUGAUCCGCUCAACCGAGAUCGGAAGAGCACACGU
B13: target 1 insU 3' of 17,insU 3' of 16 (mixed)
RNA 1: CACCCGUGCAAAAAUGCAGGGGUCUAAAACUGAGCGGAUAACCUCUCUAUGG
RNA 2: GGGAAUGGAUCCACAUCUACGAAUUCGUACCAUAGUAUGAGGUUAUCCGCUCACCGAGAUCGGAAGAGCACACGU
B14: target 1 insG 3' of 18,insG 3' of 2 (mixed)
RNA 1: CACCCGUGCAAAAAUGCAGGGGUCUAAAACUGAGCGGAUAACCUCUCUAUGG
RNA 2: GGGAAUGGAUCCACAUCUACGAAUUCGUACCAUAGGAGAGGUUAUCCGCUCGACCGAGAUCGGAAGAGCACACGU
B15: target 1 C6U,C22G (mixed)
RNA 1: CACCCGUGCAAAAAUGCAGGGGUCUAAAACUGAGCGGAUAACCUCUCUAUGG
RNA 2: GGGAAUGGAUCCACAUCUACGAAUUCGUAGCAUAGAGAGGUUAUCUGCUCACCGAGAUCGGAAGAGCACACGU
B16: target 1 insG 3' of 18,insU 3' of 13 (mixed)
RNA 1: CACCCGUGCAAAAAUGCAGGGGUCUAAAACUGAGCGGAUAACCUCUCUAUGG
RNA 2: GGGAAUGGAUCCACAUCUACGAAUUCGUACCAUAGGAGAGUGUUAUCCGCUCACCGAGAUCGGAAGAGCACACGU
B17: target 1 A1G,A16G (mixed)
RNA 1: CACCCGUGCAAAAAUGCAGGGGUCUAAAACUGAGCGGAUAACCUCUCUAUGG
RNA 2: GGGAAUGGAUCCACAUCUACGAAUUCGUACCAUAGGGAGGUUAUCCGCUCGCCGAGAUCGGAAGAGCACACGU
B18: target 1 insG 3' of 22,insC 3' of 19 (mixed)
RNA 1: CACCCGUGCAAAAAUGCAGGGGUCUAAAACUGAGCGGAUAACCUCUCUAUGG
RNA 2: GGGAAUGGAUCCACAUCUACGAAUUCGUACGCAUCAGAGAGGUUAUCCGCUCACCGAGAUCGGAAGAGCACACGU
B19: target 1 insU 3' of 17,insA 3' of 15 (mixed)
RNA 1: CACCCGUGCAAAAAUGCAGGGGUCUAAAACUGAGCGGAUAACCUCUCUAUGG
RNA 2: GGGAAUGGAUCCACAUCUACGAAUUCGUACCAUAGUAGAAGGUUAUCCGCUCACCGAGAUCGGAAGAGCACACGU
B20: target 1 U3A,A18U (mixed)
RNA 1: CACCCGUGCAAAAAUGCAGGGGUCUAAAACUGAGCGGAUAACCUCUCUAUGG
RNA 2: GGGAAUGGAUCCACAUCUACGAAUUCGUACCAUUGAGAGGUUAUCCGCACACCGAGAUCGGAAGAGCACACGU
B21: target 1 G5U,G12A (mixed)
RNA 1: CACCCGUGCAAAAAUGCAGGGGUCUAAAACUGAGCGGAUAACCUCUCUAUGG
RNA 2: GGGAAUGGAUCCACAUCUACGAAUUCGUACCAUAGAGAGAUUAUCCUCUCACCGAGAUCGGAAGAGCACACGU
B22: target 1 insG 3' of 14,insA 3' of 3 (mixed)
RNA 1: CACCCGUGCAAAAAUGCAGGGGUCUAAAACUGAGCGGAUAACCUCUCUAUGG
RNA 2: GGGAAUGGAUCCACAUCUACGAAUUCGUACCAUAGAGAGGGUUAUCCGCUACACCGAGAUCGGAAGAGCACACGU
B23: target 1 A1U,U3G (mixed)
RNA 1: CACCCGUGCAAAAAUGCAGGGGUCUAAAACUGAGCGGAUAACCUCUCUAUGG
RNA 2: GGGAAUGGAUCCACAUCUACGAAUUCGUACCAUAGAGAGGUUAUCCGCGCUCCGAGAUCGGAAGAGCACACGU
B24: target 1 insU 3' of 2,insU 3' of 2 (mixed)
RNA 1: CACCCGUGCAAAAAUGCAGGGGUCUAAAACUGAGCGGAUAACCUCUCUAUGG
RNA 2: GGGAAUGGAUCCACAUCUACGAAUUCGUACCAUAGAGAGGUUAUCCGCUCUUACCGAGAUCGGAAGAGCACACGU
B25: target 1 insG 3' of 21,insG 3' of 4 (mixed)
RNA 1: CACCCGUGCAAAAAUGCAGGGGUCUAAAACUGAGCGGAUAACCUCUCUAUGG
RNA 2: GGGAAUGGAUCCACAUCUACGAAUUCGUACCGAUAGAGAGGUUAUCCGCGUCACCGAGAUCGGAAGAGCACACGU
B26: target 1 insU 3' of 18,insC 3' of 9 (mixed)
RNA 1: CACCCGUGCAAAAAUGCAGGGGUCUAAAACUGAGCGGAUAACCUCUCUAUGG
RNA 2: GGGAAUGGAUCCACAUCUACGAAUUCGUACCAUAUGAGAGGUUACUCCGCUCACCGAGAUCGGAAGAGCACACGU
B27: target 1 insG 3' of 2,insU 3' of 2 (mixed)
RNA 1: CACCCGUGCAAAAAUGCAGGGGUCUAAAACUGAGCGGAUAACCUCUCUAUGG
RNA 2: GGGAAUGGAUCCACAUCUACGAAUUCGUACCAUAGAGAGGUUAUCCGCUCGUACCGAGAUCGGAAGAGCACACGU

Our source for the Kd values is PMC10786891, “Massively parallel profiling of RNA-targeting CRISPR-Cas13d”.

The data set concerns the target T1, EsCas13d, nuclease-dead. Put plainly: crRNA (strand 1, pre-loaded); Mg2+; 40 mM Tris-HCl pH 7.5, 150 mM NaCl, 6 mM MgCl2, 1 mM DTT, 0.1% Tween-20, 0.2 mg/ml BSA; 25 C; 10 min per concentration, then washed. The settings on record: tags: His6-TwinStrep-SUMO cleaved; N-terminal SNAP kept (SNAP-Surface 488); label: 3' end held by stalled T7 RNA polymerase.
Consider B1, for which binding was put at a Kd of 6.5 ± 0.4 nM.
The molecule B2 displayed a Kd of 22.5 ± 2 nM.
For B3, binding was characterised by a dissociation constant (Kd) of 45 ± 10 nM.
Molecule B4 had a Kd of 45 ± 6 nM.
Regarding B5, binding was characterised by a dissociation constant (Kd) of 23.5 ± 1.7 nM.
In turn, B6 displayed a Kd of 10 ± 0.6 nM.
B7: the Kd worked out at 20.6 ± 1.6 nM.
With B8 the figure was 26.8 ± 2.5 nM; with B9, 33 ± 5 nM; with B10, 13.2 ± 0.9 nM.
On to B11, for which the Kd was approximately 50 nM.
Regarding B12, the Kd amounted to 22.2 ± 1.4 nM.
As for B13, the figure is 41 ± 7 nM; as for B14, approximately 70 nM; as for B15, 39 ± 8 nM.
For the molecule B16, the Kd came to 71 ± 17 nM.
Molecule B17 showed a Kd of 32.2 ± 3 nM.
Take B18: the Kd is 52 ± 8 nM.
B19 gave a Kd of 15.3 ± 2 nM.
B20 had a Kd of 33 ± 5 nM.
In turn, B21 yielded a Kd of 42 ± 5 nM.
Consider B22, for which binding was characterised by a dissociation constant (Kd) of 11.4 ± 0.8 nM.
On to B23, for which the Kd worked out at 8.1 ± 0.4 nM.
As for B24, the figure is 9.6 ± 0.7 nM; as for B25, 51 ± 11 nM; as for B26, 50 ± 5 nM.
With B27 the figure was 8.9 ± 0.9 nM.

The Kd is the concentration at which binding is half-saturated.
